This note sets out measurements from PMC6393287, “The RRM of the kRNA-editing protein TbRGG2 uses multiple surfaces to bind and remodel RNA”.

The target of series [1] is TbRGG2 RRM-Cterm (residues 203–320) (T. brucei). Briefly: SEC; protein alone at 10 mg/ml on Superdex 75; 20 mM Tris-HCl pH 7.5, 150 mM NaCl, 5% glycerol, 1 mM DTT; elution volume compared with protein standards. Background: Size exclusion chromatography separates by hydrodynamic size, large species first.
Series [2] shares this target. Briefly: SEC; RRM-Cterm at 16 mg/ml mixed with equimolar U20 RNA, Superdex 75; 20 mM Tris-HCl pH 7.5, 150 mM NaCl, 5% glycerol, 1 mM DTT.
The target in the next series is TbRGG2 RRM W215A (Trypanosoma brucei, UniProt Q389P7 193-259, W205A). The series can be described thus: FP; FP: 20 mM Tris-HCl pH 7.5, 5% glycerol, 50 mM NaCl (a further '20 mM' printed without component), 1 nM labelled RNA, 25 C. The note with it: protein: recombinant; tags: His6 cleaved (thrombin); label: 5'-fluorescein (FP).
In the next series the target is TbRGG2 RRM-Cterm W215A (Trypanosoma brucei, UniProt Q389P7 193-310, W205A). The description is as above. Particulars: protein: recombinant; tags: His6 cleaved (thrombin); chain copies: 2; label: 5'-fluorescein (FP).

The stoichiometry N is a count of units in the complex or per binding partner. Regarding “TbRGG2 RRM-Cterm (residues 203–320) (domain or fragment)”, the stoichiometry N in series [1] and in series [2] was 2 throughout.
With UUUUUUUUUUUUUUUUUUUU (ssRNA) [U20], the binding result with TbRGG2 RRM W215A and with TbRGG2 RRM-Cterm W215A was “no binding” throughout.
